Target: I53A FLAG-Pen-2 (human) (UniProt Q9NZ42)
Assay: co-IP

Chain of UniProt Q9NZ42 (Q9NZ42 whole entry I53A): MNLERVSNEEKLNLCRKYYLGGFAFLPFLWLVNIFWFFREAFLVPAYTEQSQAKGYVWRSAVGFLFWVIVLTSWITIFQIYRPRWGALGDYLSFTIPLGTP

PS1-CTF associated with immunoprecipitated Pen-2, percent of wt: < 40 % of wt
Substance: presenilin 1 C-terminal fragment (PS1-CTF) (domain or fragment)
